The record followed here is PMC5448812, “Distinct DNA-binding surfaces in the ATPase and linker domains of MutLγ determine its substrate specificities and exert separable functions in meiotic recombination and mismatch repair” (PLoS Genetics, 2017).

Substrate in the series: Nc1ncnc2c1ncn2[C@@H]1O[C@H](COP(=O)(O)OP(=O)(O)OP(=O)(O)O)[C@@H](O)[C@H]1O
As to the kind of experiment: ATP hydrolysis, thin layer chromatography of [α-32P]-ADP. The format is biochemical, Saccharomyces cerevisiae. The note with it: 200 nM MutLγ, 25 mM Tris-HCl pH 7.5, 5 mM MgCl2, 1 mg/ml BSA, 30°C, no DNA, labelled compound as tracer (33 nM [α-32P]-ATP plus cold ATP), both subunits carry a GHKL ATPase domain, single apparent Km.

B1: MutLγ (Mlh1-Mlh3) (Saccharomyces cerevisiae S288C) (protein)
chain 1: MSLRIKALDASVVNKIAAGEIIISPVNALKEMMENSIDANATMIDILVKEGGIKVLQITDNGSGINKADLPILCERFTTSKLQKFEDLSQIQTYGFRGEALASISHVARVTVTTKVKEDRCAWRVSYAEGKMLESPKPVAGKDGTTILVEDLFFNIPSRLRALRSHNDEYSKILDVVGRYAIHSKDIGFSCKKFGDSNYSLSVKPSYTVQDRIRTVFNKSVASNLITFHISKVEDLNLESVDGKVCNLNFISKKSISPIFFINNRLVTCDLLRRALNSVYSNYLPKGNRPFIYLGIVIDPAAVDVNVHPTKREVRFLSQDEIIEKIANQLHAELSAIDTSRTFKASSISTNKPESLIPFNDTIESDRNRKSLRQAQVVENSYTTANSQLRKAKRQENKLVRIDASQAKITSFLSSSQQFNFEGSSTKRQLSEPKVTNVSHSQEAEKLTLNESEQPRDANTINDNDLKDQPKKKQKLGDYKVPSIADDEKNALPISKDGYIRVPKERVNVNLTSIKKLREKVDDSIHRELTDIFANLNYVGVVDEERRLAAIQHDLKLFLIDYGSVCYELFYQIGLTDFANFGKINLQSTNVSDDIVLYNLLSEFDELNDDASKEKIISKIWDMSSMLNEYYSIELVNDGLDNDLKSVKLKSLPLLLKGYIPSLVKLPFFIYRLGKEVDWEDEQECLDGILREIALLYIPDMVPKVDTSDASLSEDEKAQFINRKEHISSLLEHVLFPCIKRRFLAPRHILKDVVEIANLPDLYKVFERC
chain 2: MSQHIRKLDSDVSERLKSQACTVSLASAVREIVQNSVDAHATTIDVMIDLPNLSFAVYDDGIGLTRSDLNILATQNYTSKIRKMNDLVTMKTYGYRGDALYSISNVSNLFVCSKKKDYNSAWMRKFPSKSVMLSENTILPIDPFWKICPWSRTKSGTVVIVEDMLYNLPVRRRILKEEPPFKTFNTIKADMLQILVMHPMISLNVQYTDKLRINTEVLFRSKNITEGLTKHQQMSQVLRNVFGAIIPPDMLKKVSLKFNEYQIEGIISKMPVGLKDLQFIYINGRRYADSAFQGYVDSLFQAQDFGEKGMSLLKTKSVGKPYRSHPVFILDVRCPQTIDDLLQDPAKKIVKPSHIRTIEPLIVKTIRSFLTFQGYLTPDKSDSSFEIVNCSQKTATLPDSRIQISKRNQVLNSKMKIARINSYIGKPAVNGCRINNSTINYEKIKNIRIDGQKSRLRNKLSSRPYDSGFTEDYDSIGKTITDFSISRSVLAKYEVINQVDKKFILIRCLDQSIHNCPLLVLVDQHACDERIRLEELFYSLLTEVVTGTFVARDLKDCCIEVDRTEADLFKHYQSEFKKWGIGYETIEGTMETSLLEIKTLPEMLTSKYNGDKDYLKMVLLQHAHDLKDFKKLPMDLSHFENYTSVDKLYWWKYSSCVPTVFHEILNSKACRSAVMFGDELTRQECIILISKLSRCHNPFECAHGRPSMVPIAELK
notes: full-length heterodimer (175 kDa), N-terminal 6xHis-2xFlag tag kept on Mlh1 (Mlh3 untagged), co-expressed from baculoviruses in Sf9 cells
For B1, the Km stood at 64 ± 13 µM.

As usually defined, the Km is the concentration of substrate that gives half-maximal velocity.
